Results: patent US20200369747A1 (ICHNOS SCIENCES, published 2020)

Molecular target: CD3ε on Jurkat-NFAT responder cells (UniProt P07766 23-207)
Assay: cell-based or functional assay

Chain of CD3ε on Jurkat-NFAT responder cells (P07766 23-207): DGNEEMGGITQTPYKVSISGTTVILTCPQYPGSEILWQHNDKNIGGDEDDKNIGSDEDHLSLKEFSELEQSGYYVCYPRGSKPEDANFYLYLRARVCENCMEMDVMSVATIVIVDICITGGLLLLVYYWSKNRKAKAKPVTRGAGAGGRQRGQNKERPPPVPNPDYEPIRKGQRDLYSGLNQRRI

B1: BEAT®3 (bispecific antibody, human IgG1, kappa, L234A L235A)
chain 1: EVQLVESGGGLVQPGGSLRLSCAASGFTFNTYAMNWVRQAPGKGLEWVARIRSKYNNYATYYADSVKSRFTISRDDSKNTLYLQMNSLRAEDTAVYYCVRHGNFGNSYVSYFAYWGQGTTVTVSSGGGGSGGGGSGGGGSEIVVTQSPATLSVSPGERATLSCRSSTGAVTESNYANWVQEKPGQAFRGLIGGANKRAPGVPARFSGSLSGDEATLTISSLQSEDFAVYYCALFYSNTWVFGQGTKLEIKGGGGTQVQLQESGPGLVKPSETLSLTCTVSGGSVSSGDYYWTWIRQSPGKGLEWIGHIYYSGNTNYNPSLKSRLTISIDTSKTQFSLKLSSVTAADTAIYYCVRDRVTGAFDIWGQGTMVTVSSASTKGPSVFPLAPSSKSTSGGTAALGCLVKDYFPEPVTVSWNSGALTSGVHTFPAVLQSSGLYSLSSVVTVPSSSLGTQTYICNVNHKPSNTKVDKKVEPKSCDKTHTCPPCPAPEAAGGPSVFLFPPKPKDTLMISRTPEVTCVVVDVSHEDPEVQFKWYVDGVEVHNAKTKPREEQYNSTFRVVSVLTVLHQDWLNGKEYKCKVSNKALPAPIEKTISKTKGQPREPAVYTLPPSREEMTKNQVKLVCLVTGFYPSDIAVEWESSGQPENNYYTTPPMLDSDGSFSLVSWLNVDKSRWQQGNIFSCSVMHEALHNRFTQKSLSLSPG
chain 2: not shown
chain 3: DKTHTCPPCPAPEAAGGPSVFLFPPKPKDTLMISRTPEVTCVVVDVSHEDPEVKFNWYVDGVEVHNAKTKPREEQYNSTYRVVSVLTVLHQDWLNGKEYKCKVSNKALPAPIEKTISKAKGQPREPEVATFPPSRDELTKNQVTLVCLVTGFYPSDIAVEWESNGQPENNYKTDPPLLESDGSFALSSRLRVDKSRWQQGNVFSCSVMHEALHNHYTQKSLSLSPG
EC50 of NFAT-luciferase luminescence (Jurkat-NFAT responder cells co-incubated with SK-BR-3 target cells); sample: BEAT®3 High pH T2h: 0.0065 µg/ml | EC50 of NFAT-luciferase luminescence (Jurkat-NFAT responder cells co-incubated with SK-BR-3 target cells); sample: BEAT®3 High pH T4h: 0.0074 µg/ml
